In the supplement of paper PMC10065799, “High-throughput profiling of sequence recognition by tyrosine kinases and SH2 domains using bacterial peptide display” (eLife, 2023) one finds SH2 binding enrichment and phosphorylation enrichment data, which are given here for eight sequences.

The target in one data set is c-Src SH2. As to the kind of experiment: SH2 binding enrichment of the phosphorylated peptide, bacterial display (enrichment ratio); higher = better substrate or ligand; peptides without Tyr show the background.
A further data set has as its target Grb2 SH2 (UniProt P62993). The data set is described as above.
The target in the next data set is SHP2-C SH2. The description is as above.
The next data set deals with MERTK (UniProt Q12866). The experiment in a line: phosphorylation enrichment, bacterial display (enrichment ratio); higher = better substrate or ligand; peptides without Tyr show the background.
MERTK, sequence (Q12866 whole entry, looked up): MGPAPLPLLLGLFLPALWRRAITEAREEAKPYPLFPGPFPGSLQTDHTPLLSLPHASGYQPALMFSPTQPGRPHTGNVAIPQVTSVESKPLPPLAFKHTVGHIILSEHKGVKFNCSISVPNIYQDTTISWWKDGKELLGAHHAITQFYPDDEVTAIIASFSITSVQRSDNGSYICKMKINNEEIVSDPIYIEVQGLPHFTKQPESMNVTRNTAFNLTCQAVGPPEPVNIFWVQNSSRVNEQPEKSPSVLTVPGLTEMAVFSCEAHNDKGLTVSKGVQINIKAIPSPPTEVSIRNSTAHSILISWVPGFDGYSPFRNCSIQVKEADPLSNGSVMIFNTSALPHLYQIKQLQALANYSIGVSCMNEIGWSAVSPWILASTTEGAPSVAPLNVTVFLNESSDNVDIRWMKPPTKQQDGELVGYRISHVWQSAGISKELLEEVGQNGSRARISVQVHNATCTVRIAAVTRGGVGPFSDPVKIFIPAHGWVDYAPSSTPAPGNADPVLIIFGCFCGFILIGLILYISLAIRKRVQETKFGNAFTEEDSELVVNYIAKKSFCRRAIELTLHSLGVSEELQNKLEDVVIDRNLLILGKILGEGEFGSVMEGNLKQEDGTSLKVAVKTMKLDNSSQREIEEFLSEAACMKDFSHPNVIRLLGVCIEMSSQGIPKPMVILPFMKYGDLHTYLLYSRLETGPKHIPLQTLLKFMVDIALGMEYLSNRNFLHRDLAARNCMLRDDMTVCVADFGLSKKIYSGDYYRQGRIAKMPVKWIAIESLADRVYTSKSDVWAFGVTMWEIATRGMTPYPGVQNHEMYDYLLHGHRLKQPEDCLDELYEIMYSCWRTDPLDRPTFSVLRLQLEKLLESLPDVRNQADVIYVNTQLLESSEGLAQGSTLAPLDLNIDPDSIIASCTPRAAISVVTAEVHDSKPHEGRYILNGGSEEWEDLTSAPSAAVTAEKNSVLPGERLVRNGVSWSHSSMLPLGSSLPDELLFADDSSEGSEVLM
The next data set has as its target Hck (UniProt P08631). The description is as above.
For a further data set, the system named is AncSZ. The data set is described as above.
The next data set concerns the target EPHB2 (UniProt P29323). The description is as above.
The subject of the next data set is c-Abl (mouse). The data set is described as above.
Another data set concerns the target Fyn (UniProt P06241). The description is as above.
Another data set has as its system c-Src. The data set is described as above.
The next data set concerns the target Jak2 (UniProt O60674). The description is as above.
The target in a further data set is EPHB1 (UniProt P54762). The data set is described as above.
EPHB1, sequence (P54762 whole entry, looked up): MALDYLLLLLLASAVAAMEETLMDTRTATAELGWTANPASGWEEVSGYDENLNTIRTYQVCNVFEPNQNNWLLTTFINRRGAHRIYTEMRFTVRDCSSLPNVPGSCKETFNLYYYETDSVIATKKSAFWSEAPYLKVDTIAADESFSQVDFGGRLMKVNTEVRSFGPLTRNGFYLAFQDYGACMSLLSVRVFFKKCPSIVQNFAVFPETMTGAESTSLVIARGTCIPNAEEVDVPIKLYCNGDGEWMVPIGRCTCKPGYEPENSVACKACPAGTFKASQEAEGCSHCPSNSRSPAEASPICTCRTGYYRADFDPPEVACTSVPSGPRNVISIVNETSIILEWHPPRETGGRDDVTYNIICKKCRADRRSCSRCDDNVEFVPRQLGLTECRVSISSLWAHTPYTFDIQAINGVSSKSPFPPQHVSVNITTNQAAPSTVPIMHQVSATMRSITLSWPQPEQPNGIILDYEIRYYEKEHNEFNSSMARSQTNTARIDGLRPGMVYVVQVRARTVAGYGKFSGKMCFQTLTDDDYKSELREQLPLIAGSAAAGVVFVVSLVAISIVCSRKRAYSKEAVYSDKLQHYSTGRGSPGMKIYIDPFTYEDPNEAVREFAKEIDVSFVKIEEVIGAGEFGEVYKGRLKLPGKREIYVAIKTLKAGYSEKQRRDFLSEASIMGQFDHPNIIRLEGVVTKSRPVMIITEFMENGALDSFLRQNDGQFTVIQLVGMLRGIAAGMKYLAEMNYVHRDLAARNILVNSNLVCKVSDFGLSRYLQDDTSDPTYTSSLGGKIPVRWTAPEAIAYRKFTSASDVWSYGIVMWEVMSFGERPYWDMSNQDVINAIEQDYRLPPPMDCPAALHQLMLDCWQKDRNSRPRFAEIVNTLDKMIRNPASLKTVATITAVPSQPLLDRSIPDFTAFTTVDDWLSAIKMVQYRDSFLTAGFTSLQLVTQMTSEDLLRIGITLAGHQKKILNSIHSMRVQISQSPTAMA
For another data set, the target named is FGFR3 (UniProt P22607). The data set is described as above.
The next data set addresses FGFR1 (UniProt P11362). Described as above.
Another data set concerns the target Fes (UniProt P07332). Described as above.
The test system of the next data set is Fer (mouse). The description is as above.
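Throughout, for SH2 binding enrichment of the phosphorylated peptide, bacterial display: peptide library displayed on the E. coli surface as eCPX fusions, selected cells deep-sequenced, score is each peptide's frequency after selection divided by its frequency in the input.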
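Throughout, for phosphorylation enrichment, bacterial display: 11-residue human phosphosite peptides and single-mutation variants displayed on the E. coli surface, counted by deep sequencing, each peptide's frequency after selection divided by its frequency in the unselected input library; frequency after pTyr selection over input frequency; kinase dosed for 20-30% of maximal phosphorylation in three min.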

Jak2, sequence (O60674 whole entry, looked up): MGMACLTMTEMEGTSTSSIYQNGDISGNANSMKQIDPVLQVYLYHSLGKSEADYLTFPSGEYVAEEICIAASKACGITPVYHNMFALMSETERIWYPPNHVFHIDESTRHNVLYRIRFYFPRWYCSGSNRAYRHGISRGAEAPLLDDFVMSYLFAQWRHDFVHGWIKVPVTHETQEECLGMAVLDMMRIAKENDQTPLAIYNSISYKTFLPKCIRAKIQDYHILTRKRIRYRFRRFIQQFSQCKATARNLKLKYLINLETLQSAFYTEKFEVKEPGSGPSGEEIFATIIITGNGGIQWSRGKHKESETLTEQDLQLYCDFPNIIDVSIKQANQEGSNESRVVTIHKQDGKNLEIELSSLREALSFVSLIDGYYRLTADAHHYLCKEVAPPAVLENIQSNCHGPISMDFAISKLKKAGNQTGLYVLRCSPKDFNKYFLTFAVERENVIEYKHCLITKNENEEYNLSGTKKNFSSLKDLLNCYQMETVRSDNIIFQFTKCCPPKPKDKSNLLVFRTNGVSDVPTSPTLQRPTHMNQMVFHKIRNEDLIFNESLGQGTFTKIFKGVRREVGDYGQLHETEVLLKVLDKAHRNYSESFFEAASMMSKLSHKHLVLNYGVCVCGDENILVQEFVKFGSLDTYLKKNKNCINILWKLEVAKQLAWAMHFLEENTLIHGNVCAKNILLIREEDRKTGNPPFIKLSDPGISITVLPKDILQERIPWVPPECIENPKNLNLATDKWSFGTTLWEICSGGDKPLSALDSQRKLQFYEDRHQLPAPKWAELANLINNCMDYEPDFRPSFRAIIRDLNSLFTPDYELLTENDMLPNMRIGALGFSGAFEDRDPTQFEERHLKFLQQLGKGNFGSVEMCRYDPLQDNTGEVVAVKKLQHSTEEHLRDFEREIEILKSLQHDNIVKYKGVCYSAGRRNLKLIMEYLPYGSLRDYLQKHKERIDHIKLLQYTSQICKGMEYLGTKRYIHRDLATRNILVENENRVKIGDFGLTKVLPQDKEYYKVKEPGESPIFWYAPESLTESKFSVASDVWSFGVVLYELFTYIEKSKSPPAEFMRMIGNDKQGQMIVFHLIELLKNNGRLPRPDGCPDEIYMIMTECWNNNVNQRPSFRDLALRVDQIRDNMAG
EPHB2, sequence (P29323 whole entry, looked up): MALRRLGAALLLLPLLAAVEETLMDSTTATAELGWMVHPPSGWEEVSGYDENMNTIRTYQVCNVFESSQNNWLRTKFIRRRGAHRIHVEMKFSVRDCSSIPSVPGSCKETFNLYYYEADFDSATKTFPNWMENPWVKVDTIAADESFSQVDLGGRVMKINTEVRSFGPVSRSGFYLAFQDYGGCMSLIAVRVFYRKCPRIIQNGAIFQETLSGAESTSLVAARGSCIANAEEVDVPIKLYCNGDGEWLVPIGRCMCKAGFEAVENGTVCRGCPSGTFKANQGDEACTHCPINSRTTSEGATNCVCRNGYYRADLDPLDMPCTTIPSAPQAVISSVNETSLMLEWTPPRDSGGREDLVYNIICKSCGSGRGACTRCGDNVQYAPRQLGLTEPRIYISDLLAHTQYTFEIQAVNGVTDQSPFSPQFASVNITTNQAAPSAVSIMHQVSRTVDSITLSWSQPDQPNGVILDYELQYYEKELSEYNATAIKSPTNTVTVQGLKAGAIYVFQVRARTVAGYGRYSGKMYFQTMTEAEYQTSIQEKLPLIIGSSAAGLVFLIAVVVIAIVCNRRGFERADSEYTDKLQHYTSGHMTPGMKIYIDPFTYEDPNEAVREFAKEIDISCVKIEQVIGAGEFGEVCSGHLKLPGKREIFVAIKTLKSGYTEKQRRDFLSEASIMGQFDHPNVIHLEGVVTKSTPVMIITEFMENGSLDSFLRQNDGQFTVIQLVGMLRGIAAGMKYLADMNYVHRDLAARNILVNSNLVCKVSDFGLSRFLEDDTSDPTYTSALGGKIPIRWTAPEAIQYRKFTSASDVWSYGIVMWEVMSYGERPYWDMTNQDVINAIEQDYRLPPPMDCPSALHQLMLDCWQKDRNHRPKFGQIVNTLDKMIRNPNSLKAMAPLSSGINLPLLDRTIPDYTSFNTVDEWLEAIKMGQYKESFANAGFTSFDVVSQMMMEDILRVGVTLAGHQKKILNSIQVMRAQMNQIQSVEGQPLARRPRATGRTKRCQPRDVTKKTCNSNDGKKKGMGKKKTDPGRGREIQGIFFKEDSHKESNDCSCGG
Fyn, sequence (P06241 whole entry, looked up): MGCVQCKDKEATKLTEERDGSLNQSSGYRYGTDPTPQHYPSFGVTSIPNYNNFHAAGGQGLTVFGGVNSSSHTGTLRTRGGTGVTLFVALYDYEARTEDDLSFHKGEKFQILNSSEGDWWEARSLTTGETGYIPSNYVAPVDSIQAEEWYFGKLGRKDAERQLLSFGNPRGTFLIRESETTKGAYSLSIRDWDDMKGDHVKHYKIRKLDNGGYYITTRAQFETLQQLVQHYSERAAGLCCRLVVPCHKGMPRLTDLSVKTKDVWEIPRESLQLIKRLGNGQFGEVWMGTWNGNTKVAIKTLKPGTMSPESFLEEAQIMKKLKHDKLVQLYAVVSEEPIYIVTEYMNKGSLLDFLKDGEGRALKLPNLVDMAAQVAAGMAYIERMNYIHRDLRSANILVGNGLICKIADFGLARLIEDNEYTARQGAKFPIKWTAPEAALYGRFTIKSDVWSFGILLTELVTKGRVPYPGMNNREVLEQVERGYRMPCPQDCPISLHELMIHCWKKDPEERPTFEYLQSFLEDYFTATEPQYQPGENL
Grb2 SH2, sequence (P62993 whole entry, looked up): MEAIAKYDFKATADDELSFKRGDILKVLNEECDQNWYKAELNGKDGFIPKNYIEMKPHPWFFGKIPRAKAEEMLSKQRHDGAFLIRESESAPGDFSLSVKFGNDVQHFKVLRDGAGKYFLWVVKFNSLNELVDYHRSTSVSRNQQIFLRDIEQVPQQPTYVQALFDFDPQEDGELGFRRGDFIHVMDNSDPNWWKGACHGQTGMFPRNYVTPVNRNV

For RPASVYTKRCS [CPT2_Y508], the results for the SH2 binding enrichment with c-Src SH2, with Grb2 SH2 and with SHP2-C SH2 were 0.622, 1.1 and 0.643, respectively. In addition, the phosphorylation enrichment with MERTK turned out to be 0.442; with Hck, 0.418; in the data set with AncSZ, 0.781; with EPHB2, 0.603; in the data set with c-Abl (mouse), 0.687; with Fyn it was 0.623. In addition, the phosphorylation enrichment in the data set on c-Src turned out to be 0.476; in the data set with Jak2 it was 0.444; with EPHB1 it was 0.377; with FGFR3, 0.533; with FGFR1, 0.586; with Fes, 0.826. Besides, the phosphorylation enrichment in the data set on Fer (mouse) is 0.459.

Consider VFLGAYDCFLP [SLC22A5_Y486_R488C_YF], for which the SH2 binding enrichment with c-Src SH2 is 0.951; with Grb2 SH2 it was 0.947; with SHP2-C SH2 it was 0.749. For the same sequence, the phosphorylation enrichment with MERTK came out at 5.67; in the data set with Hck, 3.27; in the data set with AncSZ, 1.6; with EPHB2, 4.47; with c-Abl (mouse), 0.953; with Fyn, 5.7. Besides, the phosphorylation enrichment with c-Src turned out to be 4.75; in the data set with Jak2 it was 1.17; with EPHB1 it was 2.6; with FGFR3 it was 0.757; with FGFR1, 0.631; with Fes, 1.28. Also, in the data set with Fer (mouse), the phosphorylation enrichment turned out to be 4.68.

On to MGSYNYLGFAR [SPTLC2_Y178], for which the SH2 binding enrichment with c-Src SH2 stood at 2.54; with Grb2 SH2, 0.804; in the data set with SHP2-C SH2 it was 3.37. For the same sequence, the phosphorylation enrichment was determined as 6.56 with MERTK; 2.99 with Hck; 0.831 in the data set on AncSZ; 0.949 in the data set with EPHB2; 0.956 in the data set with c-Abl (mouse); 0.758 in the data set with Fyn. In addition, the phosphorylation enrichment with c-Src turned out to be 1.1; with Jak2 it was 2.89; with EPHB1, 2.42; with FGFR3, 1.04; in the data set with FGFR1 it was 1.3; with Fes, 1.05. Besides, the phosphorylation enrichment in the data set on Fer (mouse) was found to be 0.707.

Take IFSGIYFKPES [L2HGDH_Y102_H98Y_YF]: the values for the SH2 binding enrichment in the data set with c-Src SH2, in the data set with Grb2 SH2 and with SHP2-C SH2 were 0.77, 1.05 and 0.981, respectively. The phosphorylation enrichment with MERTK turned out to be 6; in the data set with Hck it was 2.64; in the data set with AncSZ it was 1.51; with EPHB2, 1.35; in the data set on c-Abl (mouse) it was 11.2; in the data set with Fyn, 2.7. For the same sequence, the phosphorylation enrichment is 3.26 in the data set on c-Src; 6.32 in the data set with Jak2; 1.84 in the data set with EPHB1; 1.4 in the data set with FGFR3; 1.3 in the data set with FGFR1; 0.78 with Fes. Moreover, the phosphorylation enrichment with Fer (mouse) came to 0.459.

With GFRPVYSEDEQ [CHST6_Y362_YF], the SH2 binding enrichment amounted to 0.645 with c-Src SH2, 0.904 with Grb2 SH2 and 0.73 in the data set with SHP2-C SH2. Also, the phosphorylation enrichment with MERTK was 0.559; with Hck it was 0.615; in the data set with AncSZ it was 1.35; in the data set with EPHB2, 0.699; with c-Abl (mouse), 1.27; in the data set with Fyn, 0.592. Moreover, the phosphorylation enrichment in the data set on c-Src amounted to 0.836; with Jak2, 1.47; with EPHB1, 0.754; with FGFR3, 0.835; in the data set with FGFR1 it was 0.584; with Fes, 1.49. For the same sequence, the phosphorylation enrichment in the data set with Fer (mouse) came out at 0.617.

On to RFLRGYRQFAF [HLA-A_Y137_D140Y_YF], for which the SH2 binding enrichment with c-Src SH2 was found to be 0.412; with Grb2 SH2, 0.895; with SHP2-C SH2, 0.521. Moreover, the phosphorylation enrichment was 0.587 with MERTK; 0.519 with Hck; 1.19 in the data set on AncSZ; 0.514 with EPHB2; 0.661 in the data set on c-Abl (mouse); 0.583 in the data set with Fyn. Also, the phosphorylation enrichment in the data set on c-Src was determined as 0.76; with Jak2, 0.661; in the data set with EPHB1, 0.67; with FGFR3, 0.579; with FGFR1 it was 0.643; with Fes, 0.908. The phosphorylation enrichment in the data set on Fer (mouse) was 0.678.

As for DVCKNYAKAKD [ALB_Y343_E345K], the SH2 binding enrichment came to 0.559 in the data set with c-Src SH2, 1.03 with Grb2 SH2 and 0.956 with SHP2-C SH2. The phosphorylation enrichment with MERTK amounted to 0.51; with Hck, 0.439; in the data set with AncSZ, 0.71; in the data set with EPHB2 it was 0.535; with c-Abl (mouse), 0.633; with Fyn, 0.428. The phosphorylation enrichment in the data set on c-Src was 0.4; in the data set with Jak2, 0.607; with EPHB1, 0.469; in the data set with FGFR3 it was 0.498; with FGFR1, 0.409; with Fes, 0.627. For the same sequence, in the data set with Fer (mouse), the phosphorylation enrichment stood at 0.473.

As to DQLVKHGVNPG [TMPO_Y127_Y127H], the SH2 binding enrichment with c-Src SH2 was found to be 0.457; in the data set with Grb2 SH2 it was 0.669; with SHP2-C SH2, 0.702. The phosphorylation enrichment turned out to be 0.344 with MERTK; 0.386 with Hck; 0.47 in the data set on AncSZ; 0.304 in the data set with EPHB2; 0.421 in the data set on c-Abl (mouse); 0.308 with Fyn. Besides, the phosphorylation enrichment in the data set with c-Src turned out to be 0.346; in the data set with Jak2, 0.479; with EPHB1 it was 0.347; with FGFR3, 0.377; with FGFR1, 0.329; in the data set with Fes, 0.467. Moreover, the phosphorylation enrichment in the data set with Fer (mouse) turned out to be 0.284.
